# Measurements as given in patent publication US20040023916A1 (NATIONAL INSTITUTES OF HEALTH NIH, published 2004).
# T1: mouse Plasma Cell Membrane Glycoprotein-1 (PC-1) (mouse, UniProt P06802 1-906, limits assumed)
# T1 construct: Measured as NTPPPH activity, which in these cells also includes the isozyme B10; also called Enpp1; NPP1
# T1 sequence (looked up): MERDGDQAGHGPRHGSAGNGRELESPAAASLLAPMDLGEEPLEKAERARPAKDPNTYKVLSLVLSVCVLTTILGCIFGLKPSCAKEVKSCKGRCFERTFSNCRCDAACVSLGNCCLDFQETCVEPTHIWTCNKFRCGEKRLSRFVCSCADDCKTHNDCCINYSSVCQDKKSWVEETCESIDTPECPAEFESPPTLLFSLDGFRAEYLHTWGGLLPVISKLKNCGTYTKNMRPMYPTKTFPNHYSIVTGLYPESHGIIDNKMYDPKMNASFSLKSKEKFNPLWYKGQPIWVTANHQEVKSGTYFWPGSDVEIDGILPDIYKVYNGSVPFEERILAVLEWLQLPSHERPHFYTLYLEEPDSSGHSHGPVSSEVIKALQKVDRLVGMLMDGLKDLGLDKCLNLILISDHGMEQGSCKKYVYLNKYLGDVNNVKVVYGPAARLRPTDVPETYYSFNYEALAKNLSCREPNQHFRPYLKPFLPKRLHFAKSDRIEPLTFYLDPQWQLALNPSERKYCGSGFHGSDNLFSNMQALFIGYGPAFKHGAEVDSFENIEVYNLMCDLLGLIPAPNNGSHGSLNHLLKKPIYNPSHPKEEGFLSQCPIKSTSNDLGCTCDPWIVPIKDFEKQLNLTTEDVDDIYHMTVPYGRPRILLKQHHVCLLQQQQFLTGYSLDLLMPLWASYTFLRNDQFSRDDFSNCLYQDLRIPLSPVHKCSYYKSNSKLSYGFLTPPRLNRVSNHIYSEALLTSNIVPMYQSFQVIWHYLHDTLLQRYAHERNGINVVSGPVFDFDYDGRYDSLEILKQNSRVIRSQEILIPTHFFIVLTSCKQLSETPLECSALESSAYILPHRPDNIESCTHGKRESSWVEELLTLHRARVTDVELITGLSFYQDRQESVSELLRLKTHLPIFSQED
# Biological target: T1, mouse Plasma Cell Membrane …
# Experiment: co-immunoprecipitation from osteoblast cell lysates, enzyme activity on beads
# Excerpt: Paradoxically, transfection of wild-type TNAP was associated with a significant increase in cell-associated NTPPPH, and an even greater increase in MV fraction-associated NTPPPH activity in MC3T3 cells, but no significant change in activity of transglutaminase activity, which served as a control enzyme for these experiments. […] Specifically, immunoprecipitation of TNAP from osteoblast cell lysates isolated >85% of the TNAP activity, but was not associated with any co-immunoprecipitation of NTPPPH activity (starting mean cell lysate NTPPPH 1.7 Units, and alkaline phosphatase 4.3 Units; beads after immunoprecipitation with antibody to TNAP had mean of 0.09 Units NTPPPH and 4.1 Units alkaline phosphatase; beads after immunoprecipitation with antibody to PC-1 had mean of 1.3 Units NTPPPH and 0.11 Units alkaline phosphatase, n=5).
binder,measurement,value
"mouse tissue-nonspecific alkaline phosphatase (TNAP) (enzyme, UniProt P09242 18-501, looked up, The lysates are called only 'osteoblast cell lysates'; Some MC3T3 cells were transfected with human TNAP, so the species in this experiment is not certain; also called Akp2) FVPEKERDPSYWRQQAQETLKNALKLQKLNTNVAKNVIMFLGDGMGVSTVTAARILKGQLHHNTGEETRLEMDKFPFVALSKTYNTNAQVPDSAGTATAYLCGVKANEGTVGVSAATERTRCNTTQGNEVTSILRWAKDAGKSVGIVTTTRVNHATPSAAYAHSADRDWYSDNEMPPEALSQGCKDIAYQLMHNIKDIDVIMGGGRKYMYPKNRTDVEYELDEKARGTRLDGLDLISIWKSFKPRHKHSHYVWNRTELLALDPSRVDYLLGLFEPGDMQYELNRNNLTDPSLSEMVEVALRILTKNLKGFFLLVEGGRIDHGHHEGKAKQALHEAVEMDQAIGKAGAMTSQKDTLTVVTADHSHVFTFGGYTPRGNSIFGLAPMVSDTDKKPFTAILYGNGPGYKVVDGERENVSMVDYAHNNYQAQSAVPLRHETHGGEDVAVFAKGPMAHLLHGVHEQNYIPHVMAYASCIGANLDHCAWAG",binding result,no binding
